Test results published in publication doi:10.1101/2023.06.11.543863.
Where two headings read alike, the source gives them in different places.

Key:
Assay in all cases: FRET or BRET
[1] = target: E. coli ribosomal pre-translocation complex lacking an A-site tRNA (PRE^−A complex) (E. coli) (UniProt P0A7L0)
[2] = target: E. coli ribosomal pre-translocation complex lacking an A-site tRNA (PRE^−A complex) (E. coli) (UniProt P0A7L0); remark: listed apart in the source
[3] = target: E. coli ribosomal pre-translocation complex lacking an A-site tRNA (PRE^−A complex) (E. coli) (UniProt P0A7L0); remark: listed apart in the source

UniProt P0A7L0, sequence (P0A7L0 whole entry, looked up, one chain of several): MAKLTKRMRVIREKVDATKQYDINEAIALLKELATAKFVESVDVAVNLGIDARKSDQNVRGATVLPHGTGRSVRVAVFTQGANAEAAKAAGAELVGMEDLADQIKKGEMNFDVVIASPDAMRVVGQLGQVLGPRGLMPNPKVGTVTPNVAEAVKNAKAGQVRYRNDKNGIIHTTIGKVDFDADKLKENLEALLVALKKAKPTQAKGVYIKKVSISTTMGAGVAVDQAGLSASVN

Row | Kd [1] [µM] | Kd [2] [µM] | Kd [3] [µM] | Substance
1 | < 6 | – | – | EQ2-EttA (E. coli EttA with both catalytic glutamates changed to glutamine) (from UniProt P0A9W3 1-555) (enzyme)
2 | < 6 | 1 | – | EQ2-Uup (E. coli Uup with both catalytic glutamates changed to glutamine) (from UniProt P43672 1-635) (enzyme)
3 | < 6 | – | – | EQ2-YbiT (E. coli YbiT with both catalytic glutamates changed to glutamine) (from UniProt P0A9U3 1-530) (enzyme)
4 | < 6 | – | < 1 | EQ2-YheS (E. coli YheS with both catalytic glutamates changed to glutamine) (from UniProt P63389 1-637) (enzyme)
